Experimental data taken from patent publication US20150197579A1 (MorphoSys, published 2015).
Blank lines part the entries; values can stand above or below the binder they belong to.

Assays:
[1] = target: T1, Rituximab; test: ELISA: antigen coated at 5 µg/mL, Fab-FH at 2 µg/mL, HRP-labeled anti-His antibody, QuantaBlu
T1 construct: Control antigen in the screening ELISA; also called Rituximab (IgG1kappa); not shown: the constant regions
Protocol: (§1) 5 μg/mL of each of the antigens were coated on a microtiter plate over night. […] Detection was performed using an HRP-labeled anti-His antibody and QuantaBlu fluorogenic peroxidase substrate.
(§2) Therefore 5 μg/mL of each of the antigens were coated on a microtiter plate over night. […] Detection was performed using an HRP-labeled anti-His antibody and QuantaBlu fluorogenic peroxidase substrate.

[2] = target: T2, Adalimumab; test: as above
T2 construct: not shown: the constant regions
Protocol: as §1, §2

[3] = target: T3, Bevacizumab; test: as above
T3 construct: not shown: the constant regions
T3 sequence (VH, as listed by the source): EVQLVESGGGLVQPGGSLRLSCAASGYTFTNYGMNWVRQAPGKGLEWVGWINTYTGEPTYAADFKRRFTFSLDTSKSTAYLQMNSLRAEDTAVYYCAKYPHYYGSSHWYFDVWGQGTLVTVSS
Protocol: as §1, §2

[4] = target: BSA (bovine, UniProt P02769); test: as above
BSA, sequence (P02769 25-607 limits assumed): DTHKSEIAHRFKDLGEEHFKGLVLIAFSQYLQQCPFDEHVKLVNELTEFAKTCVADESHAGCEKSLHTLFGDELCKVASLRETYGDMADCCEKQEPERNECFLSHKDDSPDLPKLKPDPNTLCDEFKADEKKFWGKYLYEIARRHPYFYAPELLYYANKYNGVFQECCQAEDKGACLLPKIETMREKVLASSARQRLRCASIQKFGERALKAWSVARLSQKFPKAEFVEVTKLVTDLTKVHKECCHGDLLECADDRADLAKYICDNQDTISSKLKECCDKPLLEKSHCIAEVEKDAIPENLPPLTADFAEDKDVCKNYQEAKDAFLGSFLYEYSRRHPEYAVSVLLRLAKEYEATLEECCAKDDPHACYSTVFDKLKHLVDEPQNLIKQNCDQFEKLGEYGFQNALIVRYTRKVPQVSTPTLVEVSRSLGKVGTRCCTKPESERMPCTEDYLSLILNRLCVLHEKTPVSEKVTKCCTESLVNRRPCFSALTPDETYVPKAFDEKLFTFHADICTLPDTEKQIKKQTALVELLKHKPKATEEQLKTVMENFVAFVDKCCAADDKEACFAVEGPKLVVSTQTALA
Protocol: as §1, §2

[5] = target: T4, Ustekinumab; test: as above
T4 construct: not shown: the constant regions
T4 sequence (VH, as listed by the source): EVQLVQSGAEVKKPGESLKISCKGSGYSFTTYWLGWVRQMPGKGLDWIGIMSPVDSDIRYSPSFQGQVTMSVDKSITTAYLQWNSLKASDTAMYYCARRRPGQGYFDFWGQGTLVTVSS
Protocol: as §1, §2

[6] = target: Adalimumab/TNF-α complex (human, UniProt P01375 77-233); test: real time, label free interaction analysis, Attana A200, immobilized Adalimumab-TNF-α complex, monovalent
Adalimumab/TNF-α complex, sequence (P01375 77-233, one chain of several): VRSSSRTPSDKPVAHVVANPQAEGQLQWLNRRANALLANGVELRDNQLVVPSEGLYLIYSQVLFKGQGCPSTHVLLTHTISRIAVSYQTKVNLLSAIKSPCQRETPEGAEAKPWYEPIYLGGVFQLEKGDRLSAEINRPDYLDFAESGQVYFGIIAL

[7] = target: T1, Rituximab; test: ELISA: antigen coated at 5 µg/mL, HRP-conjugated AdaTNF#5-hIgG1 at 2 µg/mL in HiSpec buffer, QuantaBlu
Protocol: (§3) Antigens were coated at 5 μg/mL on a microtiter plate over night. […] Detection was performed using the QuantaBlu® fluorogenic peroxidase substrate. […] (FIG. 3)

[8] = target: T2, Adalimumab; test: as above
Protocol: as §3

[9] = target: T4, Ustekinumab; test: as above
Protocol: as §3

T1 sequence (VH, as listed by the source, chain 1 of 2): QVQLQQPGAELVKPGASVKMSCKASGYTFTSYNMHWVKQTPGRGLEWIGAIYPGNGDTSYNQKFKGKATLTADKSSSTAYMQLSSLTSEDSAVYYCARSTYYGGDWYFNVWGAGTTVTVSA
T1 sequence (VL, as listed by the source, chain 2 of 2): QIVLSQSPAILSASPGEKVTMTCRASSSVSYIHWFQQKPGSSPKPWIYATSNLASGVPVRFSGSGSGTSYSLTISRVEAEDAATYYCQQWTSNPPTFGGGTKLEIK

binding result [1]: no binding (tested: 2 µg/mL)
binding result [2]: no binding (tested: 2 µg/mL)
binding result [3]: no binding (tested: 2 µg/mL)
binding result [4]: no binding (tested: 2 µg/mL)
binding result [5]: no binding (tested: 2 µg/mL)
B1: AdaTNF#1 (Fab, V domains shown)
VH: QVQLVQSGAEVKKPGSSVKVSCKASGGTFSTYAISWVRQAPGQGLEWMGGIIPIFGTANYAQKFQGRVTITADESTSTAYMELSSLRSEDTAVYYCARDYFSSIGWVVYYGPMDYWGQGTLVTVSS
VL: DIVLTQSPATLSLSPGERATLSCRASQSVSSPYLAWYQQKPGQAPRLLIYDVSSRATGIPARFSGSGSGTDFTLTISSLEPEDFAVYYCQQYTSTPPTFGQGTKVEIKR
notes: HuCAL Fab in Fab-FH format, detected by an anti-His antibody; also called anti-Adalimumab/TNF-α antibody in Fab-FH format

Kd [6]: 67 nM
binding result [1]: no binding (tested: 2 µg/mL)
binding result [2]: no binding (tested: 2 µg/mL)
binding result [3]: no binding (tested: 2 µg/mL)
binding result [4]: no binding (tested: 2 µg/mL)
binding result [5]: no binding (tested: 2 µg/mL)
B2: AdaTNF#5 (Fab, V domains shown)
VH: QVQLVQSGAEVKKPGSSVKVSCKASGGTFSTNAISWVRQAPGQGLEWMGGINPHLGHADYAQKFQGRVTITADESTSTAYMELSSLRSEDTAVYYCARGWYYIGSNPSMYPNYFDPWGQGTLVTVSS
VL: DIQMTQSPSSLSASVGDRVTITCRASQTISSYLNWYQQKPGKAPKLLIYTASNLQSGVPSRFSGSGSGTDFTLTISSLQPEDFATYYCQQVLHLPHTFGQGTKVEIKR
notes: HuCAL Fab in Fab-FH format, detected by an anti-His antibody; also called AdaTNb/F#5; anti-Adalimumab/TNF-α antibody in Fab-FH format

binding result [7]: no binding (tested: 2 µg/mL)
binding result [8]: no binding (tested: 2 µg/mL)
binding result [9]: no binding (tested: 2 µg/mL)
B3: AdaTNF#5-hIgG1 (antibody, V domains shown)
VH: B2 VH
VL: B2 VL
modifications: antibody conjugated to HRP, site not stated
notes: AdaTNF#5 converted into full length (bivalent) human IgG1, expressed in a human cell line, conjugated to HRP; also called anti-Adalimumab/TNF-α hIgG1 antibody AdaTNF#5 (conjugated to HRP); HRP-conjugated AdaTNF#5-hIgG1
